In data set [1] the target is T1, PhoA (APase; MADE1013045) (Alteromonas mediterranea, UniProt F2G8N3).
T1 construct: gene MADE_1013045; full-length 1467-bp synthetic gene, pETM-14, N-terminal His6-PreScission 3C, tag cleaved, expressed in E. coli BL21(DE3)
T1 sequence (F2G8N3 1-488): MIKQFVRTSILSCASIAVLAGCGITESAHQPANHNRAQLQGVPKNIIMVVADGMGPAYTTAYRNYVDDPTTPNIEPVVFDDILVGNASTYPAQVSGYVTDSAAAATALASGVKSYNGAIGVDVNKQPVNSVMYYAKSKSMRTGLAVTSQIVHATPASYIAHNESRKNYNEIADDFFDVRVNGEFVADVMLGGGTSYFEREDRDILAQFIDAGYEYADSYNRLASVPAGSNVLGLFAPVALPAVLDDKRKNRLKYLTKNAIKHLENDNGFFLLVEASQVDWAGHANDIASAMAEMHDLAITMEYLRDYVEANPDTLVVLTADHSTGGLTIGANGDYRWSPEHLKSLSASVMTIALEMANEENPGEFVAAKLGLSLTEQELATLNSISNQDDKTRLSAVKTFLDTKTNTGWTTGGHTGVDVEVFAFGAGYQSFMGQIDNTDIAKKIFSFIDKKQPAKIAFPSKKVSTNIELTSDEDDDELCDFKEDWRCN
The data set is described as follows: p-nitrophenol release, absorbance […] nm, Michaelis-Menten fit. It counts as biochemical. The settings on record: read-out: KM (μmol l^-1); 100 mM Tris pH 8.2, 24 °C, 100 µM MgCl2; 10 nM enzyme.

Substrate in data set [2]: O=[N+]([O-])c1ccc(OP(=O)(O)O)cc1
The data set can be described thus: purified protein. It counts as biochemical, Alteromonas mediterranea. The settings on record: 100 mM Tris pH 8.2, 24 °C, 100 µM MgCl2, 1 nM enzyme, text rounds KM to 90 µM.

Substrate in data set [3]: O=[N+]([O-])c1ccc(OP(=O)(O)Oc2ccc([N+](=O)[O-])cc2)cc1
The data set is described as follows: purified protein. It counts as biochemical, Alteromonas mediterranea. The settings on record: 100 mM Tris pH 8.2, 24 °C, 100 µM MgCl2, 10 nM enzyme.

Take `COP(=O)(OC)Oc1ccc([N+](=O)[O-])cc1` [Paraoxon-methyl]: the Km in data set [1] was 15 nM.

B1: PhoA (APase; MADE1013045) (Alteromonas mediterranea DE) (protein)
chain: T1 sequence (F2G8N3 1-488)
notes: full-length 1467-bp synthetic gene, pETM-14, N-terminal His6-PreScission 3C, tag cleaved, expressed in E. coli BL21(DE3)
For B1, in “purified protein [2]”, the Michaelis constant (Km) amounted to 94 ± 35 µmol/L, the kcat was determined as 0.5 ± 0.03 s⁻¹ and the kcat/Km came out at 4800 ± 800 M⁻¹ s⁻¹. Moreover, in the data set “purified protein [3]”, the Km came out at 0.3 ± 0.1 µmol/L, the kcat was found to be 0.017 ± 0.001 s⁻¹ and the kcat/Km stood at 55000 ± 8000 M⁻¹ s⁻¹.
